Reference: patent US5821046A, “RNA oligonucleotides that bind HIV tat protein” (RiboTargets Holdings PLC, priority 1990, dated 1998)

B1: TAR A22 to U22; U40 to A40 (ssRNA)
RNA: GGGUCUCUCUGGUUAGACCAGUUUUGAGCCUGGGAGCUCACUGGCUAACUAGGGAACCC
B2: TAR G26 to C26; C39 to G39 (ssRNA)
RNA: GGGUCUCUCUGGUUAGACCAGAUUUCAGCCUGGGAGCUGUCUGGCUAACUAGGGAACCC
B3: TAR G26 to A26; C39 to U39 (ssRNA)
RNA: GGGUCUCUCUGGUUAGACCAGAUUUAAGCCUGGGAGCUUUCUGGCUAACUAGGGAACCC
B4: TAR C39 to G39 (ssRNA)
RNA: GGGUCUCUCUGGUUAGACCAGAUUUGAGCCUGGGAGCUGUCUGGCUAACUAGGGAACCC

These binders were tested against HIV-1 Tat (Human immunodeficiency virus 1, UniProt P04608 P04608:1-86) (assay: competition; D1/2; wild type 90 nM).

Point of comparison: B4, IC50 1500 nM. Against it:
- B1 — 6.8-fold lower, 220 nM
- B2 — 1.6-fold higher, 2370 nM
- B3 — 2.4-fold lower, 631 nM
